Assay results taken from patent US20070123452A1, “Method of selecting novel immunosuppressant” (Astellas Pharma Inc., priority 2002, published 2007).

Assays:
histone = assay: HDAC activity with [3H]-labeled acetylated histone as a substrate; assay type: biochemical, human; conditions: expressed in 293T cells, crudely purified; compared to wild-type HDAC4
Method: 7 μg of a plasmid for the expression of wild-type HDAC4 and HDAC4 dominant negative variants (H802K, H803L, H863L) was transfected to 293T cells by the calcium phosphate method; 48 hours later, whole cell lysate (cells were disrupted in 25 mM Tris, pH 7.4, 150 mM NaCl, 1 mM CaCl2, 1% Triton X-100, and cell debris was removed by centrifugation) was crudely purified using an anti-Flag antibody column (SIGMA, anti-Flag M2-agarose) (washed with TBS, then eluted with 0.1M Glysine-HCl, pH 3.5), and used for the measurement of HDAC activity. The reaction substrate used was a [^3H]-labeled acetylated histone prepared by cultivating Jurkat cells (2×10^8 cells) in 40 mL of an RPMI (SIGMA) medium containing 300 MBq [^3H] sodium acetate (NENTM Life Science Products, Inc.) for 2 hours, disrupting the cells in Lysis buffer, pH 6.5 (10 mM Tris-HCl, 50 mM Sodium Hydrogen sulfate, 1% Triton X-100, 10 mM MgCl2-6H2O, 8.6% Sucrose), washing the cells with Wash buffer (10 mM Tris-HCl, 13 mM EDTA), and then adding 0.4N H2SO4.

N-CoR(RD3) = target: T1, N-CoR(RD3) (Homo sapiens, UniProt O75376); assay: Two-hybrid detection system for interaction of HDAC4 and N-CoR; assay type: cell-based; conditions: Jurkat cells; 22 hours after transfection
T1 construct: expressed in transfected cells; host or cells: Jurkat cells (ATCC, TIB-152)
T1 sequence (O75376 1005-1498): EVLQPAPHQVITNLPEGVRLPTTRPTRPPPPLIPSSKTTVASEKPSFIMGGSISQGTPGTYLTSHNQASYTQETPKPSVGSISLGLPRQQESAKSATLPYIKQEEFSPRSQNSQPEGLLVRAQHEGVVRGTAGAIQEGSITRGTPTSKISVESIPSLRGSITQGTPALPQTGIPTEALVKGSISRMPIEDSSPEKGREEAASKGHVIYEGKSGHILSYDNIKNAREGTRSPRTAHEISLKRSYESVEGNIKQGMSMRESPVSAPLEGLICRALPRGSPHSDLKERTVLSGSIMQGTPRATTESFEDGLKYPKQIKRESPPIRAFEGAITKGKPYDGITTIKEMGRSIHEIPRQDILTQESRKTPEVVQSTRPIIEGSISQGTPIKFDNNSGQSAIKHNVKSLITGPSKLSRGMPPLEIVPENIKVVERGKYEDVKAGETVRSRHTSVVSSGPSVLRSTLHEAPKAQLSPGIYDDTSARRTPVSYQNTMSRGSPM
Method: First, from the literature information in Mol. Cell, 2002, Vol. 9, p.45-57, the site corresponding to the RD3 sequence of human N-COR was determined (1005-1498a.a.). The human N-COR CDS base sequence was obtained from GenBank accession number AF044209, and human N-CoR(RD3) cDNA was amplified from human-lung-derived cDNA by the PCR method. The primers used were RD3-Bam-FW (SEQ ID NO:82) and RD3-Not-RV (SEQ ID NO:83) below. For the base sequence of human N-CoR(RD3), see SEQ ID NO:21; for the amino acid sequence encoded by the base sequence of human N-CoR (RD3), see SEQ ID NO:22. […]
Subsequently, 10 μg of pG5-Luc (Promega), 3 μg of BND and 3 μg of pACT, or 10 μg of pG5-Luc, 3 μg of pBND-N-CoR (RD3) and 3 μg of pACT-HDAC4, or 10 μg of pG5-Luc, 3 μg of pBND-N-CoR(RD3) and 3 μg of pACT-HDAC4 (H863L), were mixed respectively, and each mixture was transfected to 1×10^7 Jurkat cells (ATCC, TIB-152) by the electroporation method (BIO-RAD, Gene Pulser II, voltage 300 V, charge 975 μF, 400 μL). Twenty-two hours after transfection, luciferase activity in the cells was measured according to the manual of the Bright-Glo Luciferase Assay System (Promega) using a multi-label counter (1420 MULTILABEL COUNTER ARVO SX, WALLAC).

interaction with N-CoR(RD3), GAL4 transcription activation (luciferase) (N-CoR(RD3)): did not interact with N-CoR(RD3)
B1: HDAC4 dominant negative variant (H863L): HDAC4 variant with H863L mutation, amino acid sequence SEQ ID NO:6, expressed from plasmid (protein, listed as Homo sapiens)
chain: MSSQSHPDGLSGRDQPVELLNPARVNHMPSTVDVATALPLQVAPSAVPMDLRLDHQFSLPVAEPALREQQLQQELLALKQKQQIQRQILIAEFQRQHEQLSRQHEAQLHEHIKQQQEMLAMKHQQELLEHQRKLERHRQEQELEKQHREQKLQQLKNKEKGKESAVASTEVKMKLQEFVLNKKKALAHRNLNHCISSDPRYWYGKTQHSSLDQSSPPQSGVSTSYNHPVLGMYDAKDDFPLRKTASEPNLKLRSRLKQKVAERRSSPLLRRKDGPVVTALKKRPLDVTDSACSSAPGSGPSSPNNSSGSVSAENGIAPAVPSIPAETSLAHRLVAREGSAAPLPLYTSPSLPNITLGLPATGPSAGTAGQQDTERLTLPALQQRLSLFPGTHLTPYLSTSPLERDGGAAHSPLLQHMVLLEQPPAQAPLVTGLGALPLHAQSLVGADRVSPSIHKLRQHRPLGRTQSAPLPQNAQALQHLVIQQQHQQFLEKHKQQFQQQQLQMNKIIPKPSEPARQPESHPEETEEELREHQALLDEPYLDRLPGQKEAHAQAGVQVKQEPIESDEEEAEPPREVEPGQRQPSEQELLFRQQALLLEQQRIHQLRNYQASMEAAGIPVSFGGHRPLSRAQSSPASATFPVSVQEPPTKPRFTTGLVYDTLMLKHQCTCGSSSSHPEHAGRIQSIWSRLQETGLRGKCECIRGRKATLEELQTVHSEAHTLLYGTNPLNRQKLDSKKLLGSLASVFVRLPCGGVGVDSDTIWNEVHSAGAARLAVGCVVELVFKVATGELKNGFAVVRPPGHHAEESTPMGFCYFNSVAVAAKLLQQRLSVSKILIVDWDVHHGNGTQQAFYSDPSVLYMSLLRYDDGNFFPGSGAPDEVGTGPGVGFNVNMAFTGGLDPPMGDAEYLAAFRTVVMPIASEFAPDVVLVSSGFDAVEGHPTPLGGYNLSARCFGYLTKQLMGLAGGRIVLALEGGHDLTAICDASEACVSALLGNELDPLPEKVLQQRPNANAVRSMEKVMEIHSKYWRCLQRTTSTAGRSLIEAQTCENEEAETVTAMASLSVGVKPAEKRPDEEPMEEEPPL
modifications: Dominant negative mutant (H863L) of human histone deacetylase-4 (HDAC4) gene
HDAC activity with histone as a substrate (histone): decreased HDAC activity compared to wild-type HDAC4
